This is an account of results in patent US20110201105A1, “LACTATION-ASSOCIATED POLYPEPTIDES” (Dairy Australia Limited, priority 2007, published 2011).

Entries after “also recorded” stand apart in the source; their conditions may differ.

Experiment [1] deals with p38 MAPK. Briefly: p38 MAPK assay of inflammatory activity in RAW macrophage cells. The class given is cell-based. How it is done: Plasmids containing Tammar wallaby LAMs were directionally cloned into the expression vector pCMV Sport 6.0, and then transfected into the human kidney cell line HK293. A total of 1 μg of LAM-containing plasmid DNA and 10 ng of pEGFP-C1 plasmid was introduced into 70% confluent HK293 cells in 2 cm^2 wells containing 500 ul of opti-MEM-1 media. Transfection success was assessed by observing green fluorescence of cells by fluorescent microscopy. After 48 hours conditioned media containing the secreted polypeptide was collected and frozen at −20° C. The media containing the secreted polypeptides was then used directly in a variety of bioactivity assays. For the assays described below, samples of secreted polypeptides were aliquoted into individual wells of 96 or 384 well plates and stored, prior to assaying, either frozen or lyophilized.
A negative control created by transfection with an insertless vector was used in all assays. For the assays described in Examples 4A, 4B, 4C and 4D results for samples were in the form of relative fluorescence units (RFU) as described herein. […] In some cases, RFU less than two standard deviations from the mean were considered significant if the LAM sample in question produced a positive result in another assay. […]
Activation of p38 MAPK was assessed in RAW macrophage cells. […]

Experiment [2] deals with chicks. The experiment is described as follows: Chick growth assay (in ovo injection, weight at hatching). The experiment is classed as in vivo. As to the method: FIG. 5. Chick growth assay by measuring weight. 10 LAMs (being bovine homologues having homology to specific Tammar ESTs), 3 known bovine cathelicidins, and four bovine cathelicidin variants were tested. Conditioned media containing a LAM polypeptides or bovine cathelicidins or variants thereof was diluted in a total of 1 ml of normal saline. Eggs on day 16 of incubation were injected with 1 ml of the media containing the into the broad end of the egg. Chicks were weighed on day of hatching. The overall condition of the chick was assessed including the possible presence of stumpy legs and/or loss of down feathers.
Conditioned media containing LAM polypeptides or bovine cathelicidins or variants thereof were diluted in a total of 1 ml of normal saline. Eggs on day 16 of incubation were injected in ovo with 1 ml of LAM polypeptides or bovine cathelicidins or variants thereof into the broad end of the egg. Chicks were weighed on day of hatching. Controls included saline only, or saline and 10 mg/ml of a peptide as a random peptide control.
As set out in Table 23, the left column indicates the polypeptide used in the assay while the right column contains chick weight in grams as a measurement of chick growth. Bolded numbers represent a chick(s) larger than the controls and more than 2 standard deviations from the mean. In addition, bolded numbers represent chicks that have been killed. The mean represents the weight of all the chicks tested within this experiment.

The subject of experiment [3] is trefoil 1. Briefly: Induction of trefoil proteins in AGS cells (peroxidase immunodetection). The experiment is classed as cell-based, human. As to the method: FIGS. 11A and B: Peroxidase assay for trefoil activity. Supematants of HEK293 cells expressing tammar mammary clones were applied to the human gastric epithelial cell line, AGS, for 48 hours. The resultant AGS cell conditioned media containing stimulated AGS cell secreted proteins, and the AGS cells, were lysed. Samples of the AGS cell secreted proteins and cell lysates, and a recombinant positive control were transferred to a solid support and probed using a rabbit anti-trefoil 1 antibody and a secondary goat anti-rabbit antibody conjugated to horse radish peroxidase was used to detect the trefoil 1. A: Detection of secreted trefoil 1 in supematants from stimulated AGS cells. B: Detection of expression of trefoil 1 in stimulated AGS cell lysate samples.
In addition, supernatants of HEK293 cells expressing tammar mammary clones were applied to the human gastric epithelial cell line, AGS, for 48 hours. The resultant AGS cell conditioned media containing stimulated AGS cell secreted proteins (i.e. supernatant) were collected and the AGS cells were lysed. […]

Experiment [4] deals with mouse embryonic stem (ES) cells. The experiment is described as follows: Cellular differentiation assay, mouse ES cells with Oct4-βgal transgene. To be noted: tammar wallaby polypeptides, LIF 1000 U/ml, 1:5 dilution, 48 hours (FIG. 7). The experiment is classed as cell-based. As to the method: FIG. 7. Cellular differentiation assay. To determine the ability of LAMs to influence cell differentiation, mouse embryonic stem (ES) cells were cultured in the presence of leukemia inhibitory factor (LIF) 1000 U/ml and the LAM in question a 1 in 5 dilution of the secreted polypeptides and cultured for 48 hours. […] This figure contains Panel A (Negative control) and Panels B to L (Presence of a LAM for which one LAM polypeptide is represented in one panel).
To determine the ability of LAMs to influence cellular differentiation, mouse embryonic stem (ES) cells were cultured in the presence of a leukemia inhibitory factor (LIF) 1000 U/ml and a 1:5 dilution of the secreted polypeptide LAMs for 48 hours.

Experiment [5] has as its system ERK1/2. Briefly: ERK1/2 activation in Swiss 3T3 cells by bovine polypeptides. The class given is cell-based. To be noted: cell supernatants containing bovine polypeptide, listed as CAMP. How it is done: Swiss 3T3 cells were treated with cell supematants containing bovine TCN 1 polypeptide. […] An increase in relative fluorescence units over the control indicates ERK activation.
Aliquots of the CRC-IDP samples were used to activate HSC-2 cells in a 96 well plate. Confluent and serum-starved cells were presented with the samples at a final dilution of 1:2. Cells were also stimulated with an internal control for activation of cells (Stim=10% serum) or left unstimulated (unstim). After 10 minutes with the CRC-IDP samples or control stimulus, cells were lysed and assayed for ERK activation using TGR's proprietary assay technology (SureFire). FIG. 12 presents the results as the mean+/−SEm of 3 separate samples. The data is from a single experiment.

Experiment [6] deals with HC11 cells. Briefly: Cell growth with cathelicidins in HC11 cells. The experiment is classed as cell-based, mouse. The arrangement: cell growth Rep. 1 / cell growth Rep. 2 / cell growth Rep. 3 / cell growth Rep. 4 / cell growth Mean: unit not given here. To be noted: 72 hours. How it is done: FIG. 2. Cellular growth assay with HC11 cells. Mouse mammary epithelial cells, HC11 cells, were grown in media conditioned with: mock transfection (control), LAM32, LAM32a or LAM32b for 72 hours. Samples were performed in triplicate and the cells from each triplicate counted in triplicate. […] LAM 32 is represented as set forth in SEQ ID NO: 188, and two splice variants thereof, designated LAM32a and 32b as set forth in SEQ ID NO: 215 and 207 respectively.
As shown in FIG. 2 equal numbers of mouse mammary HC11 cells were grown in the presence of either a negative control or tammar wallaby cathelicidin-associated polypeptide, namely LAM 32 (SEQ ID NO: 188), LAM 32a (SEQ ID NO: 215) or LAM 32b (SEQ ID NO: 207) in order to determine the effect of these LAMs on cellular growth.
HC11 cells were initially plated at 50 percent confluency and cultured for 72 hours in a 1:10 dilution of serum and antibiotic free Optimem and media conditioned with cathelicidin associated polypeptides. The medium was removed and then washed gently for 2 minutes with Mg^2+- and Ca^2+-free phosphate buffered saline (PBS), 0.05% Trypsin and 1:5000 Versene to disrupt cell aggregates. Cells were collected by scraping and washed twice by resuspension in complete medium followed by centrifugation. The cells were again resuspended and counted in triplicate using a Luber haemocytometer.
(§1) The cells were counted in triplicate using a Luber haemocytometer. The negative control was media alone (i.e. conditioned media […] insertless vector). The samples were deemed statistically significant using a t-test comparing the control with the sample if the values of cell growth were 2 standard deviations higher than the mean of the negative control.

In experiment [7] the test system is bovine mammary epithelial cells. The experiment is described as follows: Cellular morphology assay, bovine mammary epithelial cells. The experiment is classed as cell-based. To be noted: 1:5 dilution of secreted polypeptide, 48 hours (FIG. 6). How it is done:
FIG. 6. Cellular morphology assay. To determine the ability of LAMs to influence cellular morphology, bovine mammary epithelial cells were plated onto a extracellular matrix and the cells were subsequently allowed to migrate to form mammospheres in the presence or absence of each LAM. The figure contains Panel A (Negative control) and Panels B to G (Presence of a LAM for which one LAM polypeptide is represented in one panel).
Candidate LAM polypeptides that are able to regulate the function and differentiation of the mammary gland were screened by culturing bovine mammary epithelium in the presence of a 1:5 dilution of the secreted polypeptide LAMs for 48 hours as described for the TGR assays in Example 4. Cells were examined microscopically for gross morphological changes and for their ability to induce cell differentiation.

Experiment [8] relates to mouse ES cells. Briefly: Cell growth with cathelicidins in mouse ES cells. To be noted: 24 hours. Set-up: cell growth Rep. 1 / cell growth Rep. 2 / cell growth Rep. 3 / cell growth Mean: unit not given here. The class given is cell-based. As to the method:
Mouse ES cells were plated at 50 percent confluency and cultured for 24 hours in a 1:10 dilution of serum and antibiotic free Optimem and media conditioned with cathelicidin associated polypeptides. The medium was removed and then washed gently for 2 minutes with Mg^2+- and Ca^2+-free phosphate buffered saline 0.05% Trypsin and 1:5000 Versene to disrupt cell aggregates. Cells were collected by scraping and washed twice by resuspension in complete medium followed by centrifugation. The cells were again resuspended and counted in triplicate using a Luber haemocytometer.
as §1

B1: LAM 19: EBP: Emopamil binding protein (sterol isomerase); tammar polypeptide SEQ ID NO 49, bovine SEQ ID NO 109 (protein)
chain: MTTNTSPMHPYWPRHLRLDNFVPNDYPTWHILAGLFSVSGVLVVATWLLSGRAAVVPLGTWRRLSLCWFAVCGFIHLVIEGWFSLYHADLLGDQAILSQLWKEYAKGDSRYILNDNFMICMETVTAYLWGPLSLWVVIAFLRHQPLRFVLQLVVSMGQVYGDVLYFLTEYRDGFQHGELGHPLYFWFYFVFLNSLWLVVPGLLILDSIKQLAHAQSILDAKAPKAKSKQXLKSDELGLNTGYEELSTYQKIPILAPTGRKDKLN
modifications: X: residue not identified in the source; ends and bridges not checked
Consider B1, for which, in experiment [1] (30 minutes, Mean RFU 12253, SD RFU 7395, negative control 11004 RFU), the “RFU (p38 activation, pro-inflammatory activity)” value is 66112 RFU. Besides, in experiment [1] (text summary of Tables 12 and 13), the “pro-inflammatory activity (RFU significantly above the mean)” value is listed as “pro-inflammatory activity”. In addition, in experiment [2] (body weight relative to mean/median of all chicks tested), the “chick size versus controls” value was “falls just outside 2 standard deviations from the median of chick weights”. The molecule further gave a Chick weight in experiment [2] (bovine polypeptides in conditioned media, 1 ml in ovo on day 16 of incubation, weighed on day of hatching, Saline 51.0) of 57.1 grams. Moreover, the “Trefoil-inducing activity: Function” value in experiment [3] (48 hours, trefoil 1 in supernatant (secretion) and cell lysate (expression)) is “enhanced expression and secretion”. The “trefoil 1 expression and/or secretion” value in experiment [3] (Table 16) was “enhance trefoil 1 expression in AGS cells as well as enhance the secretion of trefoil 1”. The cellular differentiation result in experiment [4] is recorded as “induced cellular differentiation”.

B2: LAM 32: Cathelicidin antimicrobial peptide; tammar wallaby polypeptide SEQ ID NO 188, bovine SEQ ID NO 220 (protein)
chain: QALSYREAVLRAVDQLNEQSSEPNIYRLLELDQPPQDDEDPDSPKRVSFRVKETVCSRTTQQPPEQCDFKENGLLKRCEGTVTLDQVRGNFDITCNNHQSIRITKQPWAPPQAARLCRIVVIRVCR
As to B2, the ERK1/2 activation entry in experiment [5] is reported as “activates ERK1/2; also recorded: ERK1/2 activation”. Moreover, the “cell growth Rep. 1” value is reported as 0.985 in experiment [6] (1:10 dilution conditioned media, -ve control 0.727) and 0.721 in experiment [8] (1:10 dilution conditioned media, -ve control 0.34). The “cell growth Rep. 2” value in experiment [6] (-ve control 0.76) was determined as 0.927; in experiment [8] (-ve control 0.474) it was 0.548. Also, the entries for the “cell growth Rep. 3” value in experiment [6] (-ve control 0.786) and in experiment [8] (-ve control 0.352) were 0.968 and 0.784, respectively. In addition, in experiment [6] (-ve control 0.808), the “cell growth Rep. 4” value turned out to be 1.026. Besides, the entries for the “cell growth Mean” value in experiment [6] (-ve control mean 0.77025) and in experiment [8] (-ve control mean 0.388666667) were 0.9765 and 0.6843, respectively. Besides, the “cell growth versus control (significance)” value in experiment [6] (P<0.05 t-test) is listed as “significantly more cells”. For the same molecule, the “influence on cellular morphology” value in experiment [7] was “induced a significant change in quaternary structure and/or cellular morphology”.
